Where two headings read alike, the source gives them in different places. One block for each binder: values may come before it.
Tests used:
[1] = molecular target: T1, human MET on SNU-5 cells (human, UniProt P08581 25-1390); assay: flow cytometry on SNU-5 cells
T1 construct: whole, on cells; Endogenous MET of SNU-5 cells

[2] = molecular target: T2, His-tagged human EGFR protein (human, UniProt P00533 25-645); assay: SPR (Biacore 8K), Protein A chip
T2 construct: Bought protein; also called hEGFR-His; not shown: His tag

[3] = molecular target: T3, His-tagged monkey EGFR protein (monkey (crab-eating macaque; Macaca …, UniProt A0A2K5WK39 25-645); assay: SPR (Biacore 8K), Protein A chip
T3 construct: also called fasEGFR-His; not shown: His tag

[4] = molecular target: T4, His-tagged human MET protein (human, UniProt P08581 25-932); assay: SPR (Biacore 8K), Protein A chip
T4 construct: Bought protein; also called hMET-His; not shown: His tag

[5] = molecular target: T5, monkey MET on fasMET-NIH3T3 cells (monkey (Macaca fascicularis)); assay: flow cytometry on fasMET-NIH3T3 cells
[6] = molecular target: T4, His-tagged human MET protein; assay: SPR (Biacore 8K), antibody on Protein A chip
[7] = molecular target: T6, dog MET on dMET-NIH3T3 cells (dog (Canis lupus, printed 'Cans lupus'), UniProt Q75ZY9 25-1382); assay: flow cytometry on dMET-NIH3T3 cells
T6 construct: also called dMET-NIH13T3 [sic]

[8] = molecular target: human MET on hMET-NIH3T3 cells (human, UniProt P08581 25-1390); assay: flow cytometry on hMET-NIH3T3 cells
[9] = molecular target: T5, monkey MET on fasMET-NIH3T3 cells; assay: flow cytometry on fasMET-NIH3T3 cells; remark: listed apart in the source
[10] = molecular target: T4, His-tagged human MET protein; assay: SPR (Biacore 8K), antibody on Protein A chip; remark: listed apart in the source
[11] = molecular target: T7, His-tagged dog MET (dog, UniProt Q75ZY9 25-933, limits assumed); assay: SPR (Biacore 8K), antibody on Protein A chip
T7 construct: Bought protein; also called dMET-His; not shown: His tag

[12] = molecular target: T6, dog MET on dMET-NIH3T3 cells; assay: flow cytometry on dMET-NIH3T3 cells (1.44% positive cells)
[13] = molecular target: T7, His-tagged dog MET; assay: SPR (Biacore 8K), antibody on Protein A chip; legend: - means no binding
[14] = molecular target: T7, His-tagged dog MET; assay: SPR (Biacore 8K), antibody on Protein A chip; remark: listed apart in the source
[15] = molecular target: T5, monkey MET on fasMET-NIH3T3 cells; assay: flow cytometry on fasMET-NIH3T3 cells (0.18% positive cells)
[16] = molecular target: T6, dog MET on dMET-NIH3T3 cells; assay: flow cytometry on dMET-NIH3T3 cells (5.33% positive cells)

Chain of human MET on hMET-NIH3T3 cells (P08581 25-1390 limits assumed): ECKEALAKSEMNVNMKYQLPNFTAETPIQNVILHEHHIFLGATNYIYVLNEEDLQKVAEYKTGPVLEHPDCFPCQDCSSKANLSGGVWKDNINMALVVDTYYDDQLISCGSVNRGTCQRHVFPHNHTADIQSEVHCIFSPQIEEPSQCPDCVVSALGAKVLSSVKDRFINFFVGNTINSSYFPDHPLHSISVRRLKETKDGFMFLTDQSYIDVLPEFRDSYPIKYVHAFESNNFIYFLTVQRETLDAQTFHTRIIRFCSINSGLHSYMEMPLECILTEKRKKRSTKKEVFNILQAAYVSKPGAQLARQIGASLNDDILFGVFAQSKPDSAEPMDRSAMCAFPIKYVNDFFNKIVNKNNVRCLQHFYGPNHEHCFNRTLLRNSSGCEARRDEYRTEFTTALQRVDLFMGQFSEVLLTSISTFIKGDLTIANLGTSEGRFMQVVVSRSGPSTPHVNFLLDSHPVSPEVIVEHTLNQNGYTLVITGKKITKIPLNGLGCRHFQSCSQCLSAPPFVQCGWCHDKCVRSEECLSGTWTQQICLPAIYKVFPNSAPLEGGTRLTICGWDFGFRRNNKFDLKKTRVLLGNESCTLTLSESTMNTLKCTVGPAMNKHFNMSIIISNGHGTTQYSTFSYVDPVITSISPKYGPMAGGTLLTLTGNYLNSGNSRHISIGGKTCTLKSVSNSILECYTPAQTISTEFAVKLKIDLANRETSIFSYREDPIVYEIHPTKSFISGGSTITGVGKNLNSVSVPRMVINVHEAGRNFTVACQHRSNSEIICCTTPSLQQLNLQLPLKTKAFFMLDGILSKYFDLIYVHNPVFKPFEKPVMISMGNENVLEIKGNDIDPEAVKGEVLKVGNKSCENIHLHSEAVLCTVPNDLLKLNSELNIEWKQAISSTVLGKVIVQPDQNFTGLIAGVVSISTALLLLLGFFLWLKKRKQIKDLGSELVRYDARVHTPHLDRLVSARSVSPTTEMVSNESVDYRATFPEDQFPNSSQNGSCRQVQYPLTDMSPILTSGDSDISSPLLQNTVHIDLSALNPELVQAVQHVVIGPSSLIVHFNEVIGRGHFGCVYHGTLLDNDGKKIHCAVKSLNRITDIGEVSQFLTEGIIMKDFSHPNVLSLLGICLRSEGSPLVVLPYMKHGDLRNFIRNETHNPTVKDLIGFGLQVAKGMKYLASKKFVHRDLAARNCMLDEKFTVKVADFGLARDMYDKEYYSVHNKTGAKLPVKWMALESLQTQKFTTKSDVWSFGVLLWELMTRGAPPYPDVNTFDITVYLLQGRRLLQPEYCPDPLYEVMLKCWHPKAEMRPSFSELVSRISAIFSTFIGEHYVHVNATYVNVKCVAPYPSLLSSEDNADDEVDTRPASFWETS
T5 sequence (chain, as listed by the source limits assumed): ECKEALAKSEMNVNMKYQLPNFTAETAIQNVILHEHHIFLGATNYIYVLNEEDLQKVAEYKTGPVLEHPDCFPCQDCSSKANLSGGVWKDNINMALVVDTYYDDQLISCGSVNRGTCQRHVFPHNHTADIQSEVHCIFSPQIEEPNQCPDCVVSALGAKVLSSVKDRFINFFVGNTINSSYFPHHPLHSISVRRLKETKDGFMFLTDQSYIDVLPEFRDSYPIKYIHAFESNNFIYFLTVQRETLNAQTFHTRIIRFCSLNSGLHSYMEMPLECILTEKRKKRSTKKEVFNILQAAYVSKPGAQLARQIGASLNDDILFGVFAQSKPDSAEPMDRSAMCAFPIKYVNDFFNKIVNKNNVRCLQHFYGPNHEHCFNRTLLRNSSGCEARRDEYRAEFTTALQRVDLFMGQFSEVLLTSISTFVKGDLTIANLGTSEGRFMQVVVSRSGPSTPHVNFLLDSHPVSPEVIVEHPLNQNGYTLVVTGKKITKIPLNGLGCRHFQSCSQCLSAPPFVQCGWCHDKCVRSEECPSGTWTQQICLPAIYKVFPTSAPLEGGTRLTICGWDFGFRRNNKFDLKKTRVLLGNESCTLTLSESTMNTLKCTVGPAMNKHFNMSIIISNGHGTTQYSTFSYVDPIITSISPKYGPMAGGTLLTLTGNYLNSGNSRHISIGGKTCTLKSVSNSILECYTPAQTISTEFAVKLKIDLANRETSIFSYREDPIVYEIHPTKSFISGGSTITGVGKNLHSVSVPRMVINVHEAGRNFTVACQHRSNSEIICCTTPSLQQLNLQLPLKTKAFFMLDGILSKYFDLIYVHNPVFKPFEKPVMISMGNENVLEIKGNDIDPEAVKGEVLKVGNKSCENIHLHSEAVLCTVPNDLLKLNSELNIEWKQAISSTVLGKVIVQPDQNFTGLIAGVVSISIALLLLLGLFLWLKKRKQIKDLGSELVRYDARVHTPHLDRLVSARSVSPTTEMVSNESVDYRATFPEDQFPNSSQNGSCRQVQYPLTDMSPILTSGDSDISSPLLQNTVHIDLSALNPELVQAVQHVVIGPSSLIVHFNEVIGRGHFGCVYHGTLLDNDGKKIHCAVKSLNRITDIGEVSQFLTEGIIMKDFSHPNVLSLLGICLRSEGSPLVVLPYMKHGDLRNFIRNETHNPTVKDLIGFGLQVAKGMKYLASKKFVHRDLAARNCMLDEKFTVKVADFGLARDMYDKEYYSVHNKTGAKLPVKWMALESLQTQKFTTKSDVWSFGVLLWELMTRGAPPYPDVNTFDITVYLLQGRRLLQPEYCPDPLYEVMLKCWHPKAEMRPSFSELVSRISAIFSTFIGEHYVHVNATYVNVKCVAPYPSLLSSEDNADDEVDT
T4 sequence (P08581 25-932 limits assumed): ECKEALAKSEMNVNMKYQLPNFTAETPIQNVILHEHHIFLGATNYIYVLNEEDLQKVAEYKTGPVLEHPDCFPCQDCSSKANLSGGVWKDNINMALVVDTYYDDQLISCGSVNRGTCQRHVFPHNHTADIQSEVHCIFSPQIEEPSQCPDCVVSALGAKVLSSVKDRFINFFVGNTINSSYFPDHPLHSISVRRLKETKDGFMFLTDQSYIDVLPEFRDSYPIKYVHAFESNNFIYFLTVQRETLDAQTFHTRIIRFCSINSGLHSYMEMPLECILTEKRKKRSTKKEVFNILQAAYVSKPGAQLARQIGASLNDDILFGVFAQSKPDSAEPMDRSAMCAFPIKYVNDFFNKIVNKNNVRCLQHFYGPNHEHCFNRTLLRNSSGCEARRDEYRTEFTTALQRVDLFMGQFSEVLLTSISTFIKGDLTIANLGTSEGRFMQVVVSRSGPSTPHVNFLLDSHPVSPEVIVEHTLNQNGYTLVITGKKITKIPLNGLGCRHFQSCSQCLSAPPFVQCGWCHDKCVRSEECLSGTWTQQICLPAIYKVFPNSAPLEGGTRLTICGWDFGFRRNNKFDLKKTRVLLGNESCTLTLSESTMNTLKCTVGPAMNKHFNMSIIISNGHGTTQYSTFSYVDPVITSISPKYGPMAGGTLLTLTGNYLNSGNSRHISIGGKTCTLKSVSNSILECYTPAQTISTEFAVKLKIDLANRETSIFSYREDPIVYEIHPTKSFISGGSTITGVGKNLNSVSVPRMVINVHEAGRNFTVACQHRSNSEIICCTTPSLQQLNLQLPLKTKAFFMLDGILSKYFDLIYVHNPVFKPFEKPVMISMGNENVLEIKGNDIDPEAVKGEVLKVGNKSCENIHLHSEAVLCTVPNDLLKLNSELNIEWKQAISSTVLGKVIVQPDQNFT
T1 sequence (P08581 25-1390): as the sequence (P08581 25-1390 limits assumed) above

B1: M-2G10 (antibody, V domains shown)
VH: EVQLVESGGGVVQPGRSLRLSCAASGFTFNICGIHWVRQAPGKGLEWVATISHDANDKYYADSVKGRFTISRDNSKNTLYLQMNSLRAEDTAVYYCARDGNRGYDGYFDYWGQGTLVTVSS
VL: not shown
Percentage of Positive Cells [1]: 98.7%
binding result [2]: no binding (tested: antigen up to 400 nM)
binding result [3]: no binding (tested: antigen up to 400 nM)
Kd [4]: 63.6 nM
koff [4]: 0.00362 s⁻¹
kon [4]: 57000 M⁻¹ s⁻¹
Percentage of Positive Cells [5]: 21%
Kd [6]: 31.9 nM
koff [6]: 0.00605 s⁻¹
kon [6]: 189000 M⁻¹ s⁻¹

B4: M-6E6 (antibody, V domains shown)
VH: QVQLEQSGPTLVKPTQTLTLTCTFSGFSLSSTGVAMGWIRQPPGKALEWLALIYWDDDKHYSPSLESRLTITKDTFKNQVVLSMTNMDPLDTATYYCTHRRYTGYEDYWGQGILVTVSS
VL: not shown
Percentage of Positive Cells [7]: 73.2%
Percentage of Positive Cells [8]: 99.2%
Percentage of Positive Cells [9]: 49.2%
Kd [10]: 10.1 nM
koff [10]: 0.000634 s⁻¹
kon [10]: 62500 M⁻¹ s⁻¹
Kd [11]: 253 nM
koff [11]: 0.0175 s⁻¹
kon [11]: 69000 M⁻¹ s⁻¹

B7: M-2F12 (antibody, V domains shown)
VH: QVQLVQSGGGVVQPGRSLRLSCAASGFTFNNYGMDWVRQAPGKGLEWVAVIWNDGSKKYYGDFVKGRFTISRDNSKNTLYLEMNSLRAEDTAVYYCARDLEGGQLADAFDVWGQGTMVTVSS
VL: not shown
Percentage of Positive Cells [1]: 95.6%
binding result [15]: no binding

B8: M-6D12 (antibody, V domains shown)
VH: QVQLQQSGPGLVKPSGTLSLTCAVSGGSISKSNWWTWVRQPPGKGLEWIGEIHHSGSTNYNPSLKSRVTISVEKTKNQFSLKLSSVTAADTAVYYCARGGGYGYDFDYWGQGTLVTVSS
VL: not shown
Percentage of Positive Cells [8]: 99.8%
Percentage of Positive Cells [9]: 71.4%
Kd [10]: 60.6 nM
koff [10]: 0.00237 s⁻¹
kon [10]: 39100 M⁻¹ s⁻¹
binding result [16]: no binding
binding result [13]: no binding

Now from value to binder, other results behind:

Percentage of Positive Cells [7]: 78.8%
Percentage of Positive Cells [8]: 99.6%
Percentage of Positive Cells [9]: 62.2%
Kd [10]: 13.1 nM
koff [10]: 0.000683 s⁻¹
kon [10]: 52200 M⁻¹ s⁻¹
Kd [11]: 50 nM
koff [11]: 0.00384 s⁻¹
kon [11]: 76900 M⁻¹ s⁻¹
B2: M-8E2 (antibody, V domains shown)
VH: QVQLVQSGPALVKPTQTLTLTCTFSGFSLYTSGVAVAWIRQPPGKALEWLALIYWDDDKWYTPSLKTRLSITKDTSKNQVVLTMTNMDPVDTATYYCAHRGSFNWNYGYFDYWGQGTLVTVSS
VL: not shown

Percentage of Positive Cells [8]: 99.8%
Percentage of Positive Cells [9]: 67.8%
Kd [10]: 19.9 nM
koff [10]: 0.00138 s⁻¹
kon [10]: 69700 M⁻¹ s⁻¹
binding result [12]: no binding
binding result [13]: no binding
B3: M-8H10 (antibody, V domains shown)
VH: QVQLQQWGAGLLKPSETLSLTCAVYGGSFSGYYWTWIRQPPGKGLEWIGESNHGGSTNFNPSLKSRVTISVDTSKNHFSLKLSPVTAADTAVYYCTRGGTIFGLKDAFDIWGQGTMVTVSS
VL: not shown

Percentage of Positive Cells [7]: 74.7%
Percentage of Positive Cells [8]: 99.6%
Percentage of Positive Cells [9]: 63.4%
Kd [10]: 11.6 nM
koff [10]: 0.000684 s⁻¹
kon [10]: 59100 M⁻¹ s⁻¹
Kd [11]: 62.3 nM
koff [11]: 0.00343 s⁻¹
kon [11]: 55000 M⁻¹ s⁻¹
B5: M-7D3 (antibody, V domains shown)
VH: QVQLVQSGLTLVKPTQTLTLTCTFSGFSLSTTGVSVGWIRQPPGKALEWLALIYWDDDKHYSPSLKSRLTITKDTSKNQVVLTMTNMDPVDTATYYCAPGGYSSGWPGFYDLWGRGTLVTVSS
VL: not shown

Kd [4]: 0.972 nM
koff [4]: 0.0001 s⁻¹
kon [4]: 103000 M⁻¹ s⁻¹
binding result [14]: no binding
B6: Telisotuzumab analog (antibody, human IgG1, kappa, V domains shown)
VH: QVQLVQSGAEVKKPGASVKVSCKASGYIFTAYTMHWVRQAPGQGLEWMGWIKPNNGLANYAQKFQGRVTMTRDTSISTAYMELSRLRSDDTAVYYCARSEITTEFDYWGQGTLVTVSS
VL: DIVMTQSPDSLAVSLGERATINCKSSESVDSYANSFLHWYQQKPGQPPKLLIYRASTRESGVPDRFSGSGSGTDFTLTISSLQAEDVAVYYCQQSKEDPLTFGGGTKVEIKR
notes: Humanized IgG1 against MET
binding result [2]: no binding (tested: antigen up to 400 nM)
binding result [3]: no binding (tested: antigen up to 400 nM)

Source: patent publication US20250382373A1 (BIOCYTOGEN PHARMACEUTICALS BEIJING, published 2025)
